From the supplement of paper PMC7877785
± gives the uncertainty stated by the source.

Assay: self-splicing fitness, log relative to wild type (ln ratio); higher = more splicing; Tetrahymena group I intron in knt gene, E. coli kanamycin selection, DiMSum; sequences stand for … in CUCUCU…GGAGGGAAAAGUUAUCAGGCAUGCACCUGGUAGCUAGUCUUUAAACCAAUAGAUUGCAUCGGUUUAAAAGGCAAGACCGUCAAAUUGCGGGAAAGGGGUCAACAGCCGUUCAGUACCAAGUCUCAGGGGAAACUUUGAGAUGGCCUUGCAAAGGGUAUGGUAAUAAGCUGACGGACAUGGUCCUAACCACGCAGCCAAGUCCUAAGUCAACAGAUCUUCUGUUGAUAUGGAUGCAGUUCACAGACUAAAUGUCGGUCGGGGAAGAUGUAUUCUUCUCAUAAGAUAUAGUCGGACCUCUCCUUAAUGGGAGCUAGCGGAUGAAGUGAUGCAACACUGGAGCCGCUGGGAACUAAUUUGUAUGCGAAAGUAUAUUGAUUAGUUUUGGAGUACUCGUGGUCG
Summary of the method: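 Library with all eight P1ex-region intron nucleotides randomised, intron inside the knt kanamycin-resistance gene on pET-22b(+), in E. coli BL21(DE3). Cells grew overnight at 37°C or 30°C on LB agar with or without 25 μg/mL kanamycin (plus 100 μg/mL carbenicillin, 50 μM IPTG, 0.2% rhamnose), in six replicate transformations. Pooled colonies were amplicon-sequenced on Illumina HiSeq 2500. DiMSum fitness is the error-weighted combination of wild-type-normalised replicate fold changes, kanamycin versus none.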

AGUGAGCAAUAUUACGGAAC
self-splicing fitness (ln) (30 °C): -2.5 ± 0.43

ACCUAGCAAUAUUACGGUUA
self-splicing fitness (ln) (30 °C): -2.38 ± 0.18
self-splicing fitness (ln) (37 °C): -1.57 ± 0.14

AGACAGCAAUAUUACGCGAC
self-splicing fitness (ln) (30 °C): -3.41 ± 0.44
self-splicing fitness (ln) (37 °C): -1.99 ± 0.21

CGAGAGCAAUAUUACGUGAA
self-splicing fitness (ln) (30 °C): -3.24 ± 0.2
self-splicing fitness (ln) (37 °C): -2.44 ± 0.29

GCGGAGCAAUAUUACGACAU
self-splicing fitness (ln) (30 °C): -1.38 ± 0.016
self-splicing fitness (ln) (37 °C): -0.573 ± 0.035

UUUUAGCAAUAUUACGUAAC
self-splicing fitness (ln) (30 °C): -3.07 ± 0.31
self-splicing fitness (ln) (37 °C): -1.57 ± 0.38

CUGAAGCAAUAUUACGCAAG
self-splicing fitness (ln) (30 °C): -0.812 ± 0.12
self-splicing fitness (ln) (37 °C): 0.142 ± 0.18

UCUAAGCAAUAUUACGCCAC
self-splicing fitness (ln) (30 °C): -2.44 ± 0.36
self-splicing fitness (ln) (37 °C): -3.11 ± 0.35

UGGAAGCAAUAUUACGACGG
self-splicing fitness (ln) (30 °C): -0.691 ± 0.065
self-splicing fitness (ln) (37 °C): -0.14 ± 0.084

CCUCAGCAAUAUUACGAUUA
self-splicing fitness (ln) (30 °C): -2.62 ± 0.22
self-splicing fitness (ln) (37 °C): -2.23 ± 0.19

UUGAAGCAAUAUUACGAAAA
self-splicing fitness (ln) (30 °C): -0.641 ± 0.12
self-splicing fitness (ln) (37 °C): 0.066 ± 0.15

UCCAAGCAAUAUUACGUUAU
self-splicing fitness (ln) (30 °C): -2.78 ± 0.18
self-splicing fitness (ln) (37 °C): -3.5 ± 0.37

UUACAGCAAUAUUACGGUAU
self-splicing fitness (ln) (30 °C): -1.96 ± 0.097
self-splicing fitness (ln) (37 °C): -0.871 ± 0.1

UUUAAGCAAUAUUACGAAAG
self-splicing fitness (ln) (30 °C): -3.48 ± 0.32
self-splicing fitness (ln) (37 °C): -1.54 ± 0.25

AUCAAGCAAUAUUACGGCAA
self-splicing fitness (ln) (30 °C): -0.819 ± 0.088
self-splicing fitness (ln) (37 °C): -0.213 ± 0.097

AAGCAGCAAUAUUACGGACA
self-splicing fitness (ln) (30 °C): -1.69 ± 0.16
self-splicing fitness (ln) (37 °C): 0.0141 ± 0.11

CUCAAGCAAUAUUACGACUA
self-splicing fitness (ln) (30 °C): -2.02 ± 0.31
self-splicing fitness (ln) (37 °C): -2.64 ± 0.34

GUGAAGCAAUAUUACGUUAG
self-splicing fitness (ln) (30 °C): -1.06 ± 0.098
self-splicing fitness (ln) (37 °C): 0.151 ± 0.14

AUUAAGCAAUAUUACGUUGC
self-splicing fitness (ln) (30 °C): -3.29 ± 0.23
self-splicing fitness (ln) (37 °C): -3.01 ± 0.37

UACCAGCAAUAUUACGUGUG
self-splicing fitness (ln) (30 °C): -1.22 ± 0.046
self-splicing fitness (ln) (37 °C): -0.527 ± 0.059

UAAAAGCAAUAUUACGGAUA
self-splicing fitness (ln) (30 °C): -1.35 ± 0.12
self-splicing fitness (ln) (37 °C): 0.0185 ± 0.12

UGCCAGCAAUAUUACGAAAA
self-splicing fitness (ln) (30 °C): -2 ± 0.17
self-splicing fitness (ln) (37 °C): -1.24 ± 0.14

GUUUAGCAAUAUUACGAUUC
self-splicing fitness (ln) (30 °C): -0.603 ± 0.098
self-splicing fitness (ln) (37 °C): 0.273 ± 0.14

GAAGAGCAAUAUUACGGCGU
self-splicing fitness (ln) (30 °C): -1.48 ± 0.1
self-splicing fitness (ln) (37 °C): -0.224 ± 0.12

UAUAAGCAAUAUUACGCCUU
self-splicing fitness (ln) (30 °C): -1.31 ± 0.1
self-splicing fitness (ln) (37 °C): -0.179 ± 0.12

AUGGAGCAAUAUUACGCUAA
self-splicing fitness (ln) (30 °C): -3.13 ± 0.45
self-splicing fitness (ln) (37 °C): -1.32 ± 0.45

CGCAAGCAAUAUUACGCUUU
self-splicing fitness (ln) (30 °C): -3.44 ± 0.21
self-splicing fitness (ln) (37 °C): -2.34 ± 0.21

AUUAAGCAAUAUUACGCAGC
self-splicing fitness (ln) (30 °C): -3.06 ± 0.22
self-splicing fitness (ln) (37 °C): -2.72 ± 0.39

GUUGAGCAAUAUUACGCGGU
self-splicing fitness (ln) (30 °C): -3.32 ± 0.41
self-splicing fitness (ln) (37 °C): -2.73 ± 0.34

CACCAGCAAUAUUACGUGAC
self-splicing fitness (ln) (30 °C): -4.86 ± 0.26
self-splicing fitness (ln) (37 °C): -2.34 ± 0.21

UCGCAGCAAUAUUACGCAUA
self-splicing fitness (ln) (30 °C): -1.94 ± 0.13
self-splicing fitness (ln) (37 °C): -0.0771 ± 0.11

AAGAAGCAAUAUUACGCAAC
self-splicing fitness (ln) (30 °C): -1.53 ± 0.12
self-splicing fitness (ln) (37 °C): -2.1 ± 0.18

GUAAAGCAAUAUUACGAAGU
self-splicing fitness (ln) (30 °C): -1.47 ± 0.077
self-splicing fitness (ln) (37 °C): -0.327 ± 0.098

GCCGAGCAAUAUUACGAUUU
self-splicing fitness (ln) (30 °C): -2.04 ± 0.14
self-splicing fitness (ln) (37 °C): -0.375 ± 0.14

GUCGAGCAAUAUUACGGGUC
self-splicing fitness (ln) (30 °C): -2.68 ± 0.39

UAAAAGCAAUAUUACGCGUC
self-splicing fitness (ln) (30 °C): -3.53 ± 0.24
self-splicing fitness (ln) (37 °C): -2.7 ± 0.21

CGGCAGCAAUAUUACGCCUG
self-splicing fitness (ln) (30 °C): -0.88 ± 0.24
self-splicing fitness (ln) (37 °C): -1.89 ± 0.23

UCUGAGCAAUAUUACGUAGC
self-splicing fitness (ln) (37 °C): -2.04 ± 0.27

GCCCAGCAAUAUUACGAGAG
self-splicing fitness (ln) (30 °C): -2.63 ± 0.096
self-splicing fitness (ln) (37 °C): -1.42 ± 0.1

AAUUAGCAAUAUUACGGUGG
self-splicing fitness (ln) (30 °C): -2.7 ± 0.18
self-splicing fitness (ln) (37 °C): -1.96 ± 0.22

CCGCAGCAAUAUUACGAACA
self-splicing fitness (ln) (30 °C): -2.19 ± 0.27

UACUAGCAAUAUUACGCAUU
self-splicing fitness (ln) (30 °C): -3.73 ± 0.21
self-splicing fitness (ln) (37 °C): -1.81 ± 0.14

AGGUAGCAAUAUUACGGCGG
self-splicing fitness (ln) (30 °C): -1.955 ± 0.016
self-splicing fitness (ln) (37 °C): -1.11 ± 0.034

AGGUAGCAAUAUUACGGUUA
self-splicing fitness (ln) (30 °C): -0.977 ± 0.016
self-splicing fitness (ln) (37 °C): -0.509 ± 0.033

AGCAAGCAAUAUUACGCUAC
self-splicing fitness (ln) (30 °C): -3.82 ± 0.29
self-splicing fitness (ln) (37 °C): -3.16 ± 0.4

GUACAGCAAUAUUACGAUUC
self-splicing fitness (ln) (30 °C): -0.318 ± 0.075
self-splicing fitness (ln) (37 °C): -0.0725 ± 0.11

CAGUAGCAAUAUUACGUGAC
self-splicing fitness (ln) (30 °C): -4.5 ± 0.36
self-splicing fitness (ln) (37 °C): -2.23 ± 0.31

UCGUAGCAAUAUUACGCCGG
self-splicing fitness (ln) (30 °C): -0.692 ± 0.13
self-splicing fitness (ln) (37 °C): -2.41 ± 0.28

ACAAAGCAAUAUUACGGAUA
self-splicing fitness (ln) (30 °C): -2.14 ± 0.2
self-splicing fitness (ln) (37 °C): -1.68 ± 0.17

GACCAGCAAUAUUACGGCUC
self-splicing fitness (ln) (30 °C): -0.856 ± 0.13
self-splicing fitness (ln) (37 °C): 0.658 ± 0.15

CGCGAGCAAUAUUACGCGCC
self-splicing fitness (ln) (30 °C): -1.37 ± 0.28
self-splicing fitness (ln) (37 °C): -1.66 ± 0.48

CCGCAGCAAUAUUACGCCGA
self-splicing fitness (ln) (30 °C): -2.35 ± 0.19
self-splicing fitness (ln) (37 °C): -1.42 ± 0.14

CGAAAGCAAUAUUACGUGUA
self-splicing fitness (ln) (30 °C): -3 ± 0.13
self-splicing fitness (ln) (37 °C): -2.35 ± 0.13

UUAGAGCAAUAUUACGGGUU
self-splicing fitness (ln) (30 °C): -4.25 ± 0.42
self-splicing fitness (ln) (37 °C): -3.21 ± 0.35

AAUUAGCAAUAUUACGCCUA
self-splicing fitness (ln) (30 °C): 0.234 ± 0.13
self-splicing fitness (ln) (37 °C): 0.297 ± 0.15

UUGCAGCAAUAUUACGGUGC
self-splicing fitness (ln) (30 °C): -3.79 ± 0.26
self-splicing fitness (ln) (37 °C): -2.67 ± 0.26

UGCUAGCAAUAUUACGUGAG
self-splicing fitness (ln) (30 °C): -3.51 ± 0.18
self-splicing fitness (ln) (37 °C): -1.78 ± 0.21

GUUUAGCAAUAUUACGCAUG
self-splicing fitness (ln) (30 °C): -2.59 ± 0.18
self-splicing fitness (ln) (37 °C): -0.4 ± 0.18

GUUUAGCAAUAUUACGCAAC
self-splicing fitness (ln) (30 °C): -3.59 ± 0.48
self-splicing fitness (ln) (37 °C): -2.14 ± 0.39

GCCCAGCAAUAUUACGAAGG
self-splicing fitness (ln) (30 °C): -3.32 ± 0.14
self-splicing fitness (ln) (37 °C): -2.42 ± 0.21

CAGAAGCAAUAUUACGUUAU
self-splicing fitness (ln) (30 °C): -3.44 ± 0.35
self-splicing fitness (ln) (37 °C): -2.75 ± 0.28

GGGAAGCAAUAUUACGUAAA
self-splicing fitness (ln) (30 °C): -1.53 ± 0.21
self-splicing fitness (ln) (37 °C): -1.56 ± 0.3

GGCUAGCAAUAUUACGGCUA
self-splicing fitness (ln) (30 °C): 0.235 ± 0.32
self-splicing fitness (ln) (37 °C): -0.282 ± 0.42

UGCGAGCAAUAUUACGCGCG
self-splicing fitness (ln) (30 °C): -2.71 ± 0.2
self-splicing fitness (ln) (37 °C): -2.72 ± 0.3

CGACAGCAAUAUUACGUCGA
self-splicing fitness (ln) (30 °C): -3.04 ± 0.18
self-splicing fitness (ln) (37 °C): -2.51 ± 0.15

AUGGAGCAAUAUUACGCCAA
self-splicing fitness (ln) (30 °C): -1.45 ± 0.44
self-splicing fitness (ln) (37 °C): -1.03 ± 0.38

AUUAAGCAAUAUUACGUUGG
self-splicing fitness (ln) (30 °C): -3.38 ± 0.28
self-splicing fitness (ln) (37 °C): -2.23 ± 0.28

AGAGAGCAAUAUUACGGGGG
self-splicing fitness (ln) (30 °C): -2.78 ± 0.34
self-splicing fitness (ln) (37 °C): -1.7 ± 0.36

AAGGAGCAAUAUUACGAUAC
self-splicing fitness (ln) (30 °C): -3.49 ± 0.39
self-splicing fitness (ln) (37 °C): -3.25 ± 0.37

CGCAAGCAAUAUUACGGAUC
self-splicing fitness (ln) (30 °C): -2 ± 0.19
self-splicing fitness (ln) (37 °C): -2.21 ± 0.18

UGCCAGCAAUAUUACGCGUA
self-splicing fitness (ln) (30 °C): -1.13 ± 0.075
self-splicing fitness (ln) (37 °C): -0.301 ± 0.083

GGCGAGCAAUAUUACGUUAA
self-splicing fitness (ln) (30 °C): -2.51 ± 0.19
self-splicing fitness (ln) (37 °C): -1.4 ± 0.2

GAACAGCAAUAUUACGCCUG
self-splicing fitness (ln) (30 °C): -1.85 ± 0.13
self-splicing fitness (ln) (37 °C): 0.185 ± 0.13

CCGCAGCAAUAUUACGGUAA
self-splicing fitness (ln) (30 °C): -3.69 ± 0.27
self-splicing fitness (ln) (37 °C): -1.99 ± 0.18

GAUCAGCAAUAUUACGACGG
self-splicing fitness (ln) (30 °C): -2.63 ± 0.28
self-splicing fitness (ln) (37 °C): -0.19 ± 0.25

UCCCAGCAAUAUUACGGAUA
self-splicing fitness (ln) (30 °C): -1.51 ± 0.093
self-splicing fitness (ln) (37 °C): -0.799 ± 0.084
